Experimental data: the supplement of paper PMC12764529
± gives the half width of the 95% confidence interval.

Experiments:
[1] = folding stability dG unfold from chymotrypsin proteolysis; higher = more stable
In short: (§1)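 How resistant each design was to proteolysis was captured as K50, inferred by Bayesian fitting of sequencing counts. Unfolding free energy was then derived relative to a sequence-predicted unfolded-state K50 and a shared folded-state K50, per protease or combined. Digestion used trypsin and chymotrypsin at 11 threefold-diluted concentrations plus a no-protease condition, on mini-proteins under 80 residues without cysteine in a PA-tagged cDNA display construct. Designs were kept only when AlphaFold2 dimer inter-PAE was above 15.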

[2] = folding stability dG unfold (combined trypsin and chymotrypsin); higher = more stable
In short: as §1

In the case of “SAGGSAGGSAGKLKVEIEERNGKLVLKVKLELEPEPEPVEVEKKVEVKTETKMSLEELKKSAGGSAGGSAGG [r17_51_TrROS_Hall]”, the “folding stability dG unfold” value [1] is reported as 0.952 ± 0.058 kcal/mol and the “folding stability dG unfold” value [2] is reported as 0.471 ± 0.096 kcal/mol.
For “SAGGSAGGSAGMEMKLRPEPVVEVTPTVTTEPDPSLGTTVTTTTYTFDNGEVKTETDTGGSAGGSAGGSAGG [r11_463_JUSTAS]”, the “folding stability dG unfold” value [1] was 0.0371 ± 0.25 kcal/mol and the “folding stability dG unfold” value [2] was -0.441 ± 0.28 kcal/mol.
For “SAGGSAGGSAGMKVFIFKDPEKAIEAIKEFAGKNGVKYKIIEIETTPDGYVKIKVEFEPISAGGSAGGSAGG [r11_304_TrMRF]”, the “folding stability dG unfold” value [1] was 5.31 ± 0.22 kcal/mol and the “folding stability dG unfold” value [2] was 5.48 ± 0.25 kcal/mol.
For “SAGGSAGGSAGMKYIEEAKAKAKPDKKLKITIPPSLPVEEVRKELLEEVPIDDVEFIKNLSAGGSAGGSAGG [r11_524_JUSTAS]”, the “folding stability dG unfold” value [1] was -0.491 ± 0.26 kcal/mol and the “folding stability dG unfold” value [2] was under -1 kcal/mol.
In the case of “SAGGSAGGSAGMLNTTVTVSIPTPEGKVETITIPPGVPLEEAKAKVAEPRPGAEITEIVRVSAGGSAGGSAG [r3_60_JUSTAS]”, the “folding stability dG unfold” value [1] is reported as 0.764 ± 0.044 kcal/mol and the “folding stability dG unfold” value [2] is reported as 0.165 ± 0.21 kcal/mol.
With “SAGGSAGGSAGMRLLVEKPEGPVPTVTEVEVPLPEGDKARLEEVKEELKKKGYKKVIFLDSAGGSAGGSAGG [r11_196_JUSTAS]” the “folding stability dG unfold” value [1] was -0.417 ± 0.37 kcal/mol and the “folding stability dG unfold” value [2] was under -1 kcal/mol.
With “SAGGSAGGSAGMTITVYPSDGTVLTRDMSLSEIPELLKKHPELVLESIEEGEGLAKFKVKSAGGSAGGSAGG [r17_22_JUSTAS]” the “folding stability dG unfold” value [1] was -1.05 ± 0.81 kcal/mol and the “folding stability dG unfold” value [2] was under -1 kcal/mol.
In the case of “SAGGSAGGSAGMTSTVTEVRPGSDSWTVTVTYSENSSTKTQTLTVPAGPTVRSGLPSVVSSAGGSAGGSAGG [r11_921_JUSTAS]”, the “folding stability dG unfold” value [1] is reported as 0.209 ± 0.15 kcal/mol and the “folding stability dG unfold” value [2] is reported as -0.435 ± 0.23 kcal/mol.
For “SAGGSAGGSAGMVVETEVLETTPPGRTVRTRTTTREKTPDNAPVTTESESVTEVPSPPLESAGGSAGGSAGG [r11_689_JUSTAS]”, the “folding stability dG unfold” value [1] was 0.615 ± 0.026 kcal/mol and the “folding stability dG unfold” value [2] was 0.273 ± 0.081 kcal/mol.
For “SAGGSAGGSAGPKSIPLDNATVTEFDSPNGDKVFIFSHPNKKKRLAILKDGKLVKEIPIESAGGSAGGSAGG [r11_1038_TrMRF]”, the “folding stability dG unfold” value [1] was 0.0908 ± 0.31 kcal/mol and the “folding stability dG unfold” value [2] was -0.26 ± 0.3 kcal/mol.
With “SAGGSAGGSAGPTITYHPDGRVRIDLHLPNGELLDTGVITPDEAVRLLLETGVRLRTIRPSAGGSAGGSAGG [r11_521_TrMRF]” the “folding stability dG unfold” value [1] was 0.662 ± 0.11 kcal/mol and the “folding stability dG unfold” value [2] was 0.166 ± 0.19 kcal/mol.
In the case of “SAGGSAGGSAGPVIRIPDATVTTDPATGTLTVTTAGRTVTVPPGATVTVLPDGTVVVERPSAGGSAGGSAGG [r17_34_JUSTAS]”, the “folding stability dG unfold” value [1] is reported as 0.759 ± 0.035 kcal/mol and the “folding stability dG unfold” value [2] is reported as -0.0514 ± 0.067 kcal/mol.
With “SAGGSAGGSAGRTIMIPPNQTAEEAVNHLKEELPPGNKNVTINYWDGDGEWEKFEIEVKKSAGGSAGGSAGG [r17_215_TrROS]” the “folding stability dG unfold” value [1] was -0.616 ± 0.44 kcal/mol and the “folding stability dG unfold” value [2] was under -1 kcal/mol.
With “SAGGSAGGSAGSAPAGALVTEEVSLEETETFFDPTTKKPLRTVRVTVPVKRERVVSPALPSAGGSAGGSAGG [r11_970_JUSTAS]” the “folding stability dG unfold” value [1] was -0.795 ± 0.69 kcal/mol and the “folding stability dG unfold” value [2] was under -1 kcal/mol.
With “SAGGSAGGSAGSEVEKARNAALEARRAGVEEVTITMPEELKEKVTALAKEEGINLKIESESAGGSAGGSAGG [r11_371_JUSTAS]” the “folding stability dG unfold” value [1] was 0.0457 ± 0.19 kcal/mol and the “folding stability dG unfold” value [2] was -0.351 ± 0.36 kcal/mol.
With “SAGGSAGGSAGSMPVTVTERVVTSETPLPTDELAVKTTVTYPDGTAADFTRLLPPDAPLESAGGSAGGSAGG [r11_429_JUSTAS]” the “folding stability dG unfold” value [1] was 0.875 ± 0.042 kcal/mol and the “folding stability dG unfold” value [2] was 0.158 ± 0.18 kcal/mol.
In the case of “SAGGSAGGSAGSSSFIRKGKDGSRITATPSPSYITISTFPLKGGGIVPSTKTTTLPPSLLSAGGSAGGSAGG [r11_88_JUSTAS]”, the “folding stability dG unfold” value [1] is reported as -0.915 ± 0.45 kcal/mol and the “folding stability dG unfold” value [2] is reported as under -1 kcal/mol.
In the case of “SAGGSAGGSAGVKIRMRGPNGSESKIPVPPDAIQDKFPPGDPIRIPIHRHNNNFHMDIEPVSAGGSAGGSAG [r3_86_TrROS]”, the “folding stability dG unfold” value [1] is reported as 0.353 ± 0.043 kcal/mol and the “folding stability dG unfold” value [2] is reported as -0.0674 ± 0.086 kcal/mol.
With “SAGGSAGGSAKKELKIGNVEHNPGDGRYWANIQIKDGKPIVPVEFDDPQDPERFVKKAIKQLSAGGSAGGSA [r18_479_TrROS]” the “folding stability dG unfold” value [1] was -0.706 ± 0.41 kcal/mol and the “folding stability dG unfold” value [2] was under -1 kcal/mol.
In the case of “SAGGSAGGSAKTVEIPLKDLKPDKDGKYNYDEIQDQIKEKFPPNGIDKVDIDTPRQIWDQFRSAGGSAGGSA [r18_72_TrROS]”, the “folding stability dG unfold” value [1] is reported as 0.157 ± 0.21 kcal/mol and the “folding stability dG unfold” value [2] is reported as -0.329 ± 0.42 kcal/mol.
For “SAGGSAGGSALPPGEPVEFPWRIKMGGEEHDVKRTVYRDPDGNVKLNIEIPMPPGNFEIEPVSAGGSAGGSA [r18_428_TrROS]”, the “folding stability dG unfold” value [1] was 0.206 ± 0.22 kcal/mol and the “folding stability dG unfold” value [2] was -0.451 ± 0.4 kcal/mol.
With “SAGGSAGGSAMGPPVRRVTITLSDGTRYEVDVAPDDSVAAVRAPLAAHPDVAAVTELTVEPSAGGSAGGSAG [r3_308_JUSTAS]” the “folding stability dG unfold” value [1] was 0.99 ± 0.044 kcal/mol and the “folding stability dG unfold” value [2] was 0.282 ± 0.084 kcal/mol.
In the case of “SAGGSAGGSAMKITINVSPDEPGVTIEEAKKRLAPHPVEKVTQTPLPSNSLVVTVDVSPEASAGGSAGGSAG [r3_335_JUSTAS]”, the “folding stability dG unfold” value [1] is reported as -0.457 ± 0.2 kcal/mol and the “folding stability dG unfold” value [2] is reported as under -1 kcal/mol.
For “SAGGSAGGSAMNVTTETRTDPVTGNTTTTTTYTDTGEVVTTTTTTPPETTTTTTTTTSLTKSAGGSAGGSAG [r3_126_JUSTAS]”, the “folding stability dG unfold” value [1] was 0.982 ± 0.07 kcal/mol and the “folding stability dG unfold” value [2] was 0.524 ± 0.2 kcal/mol.
In the case of “SAGGSAGGSAMRAVVVAFPPDGPPRVFPTDDLAPDERRVTFDPETGELALIEVLPEDGDPASAGGSAGGSAG [r3_356_TrMRF]”, the “folding stability dG unfold” value [1] is reported as 0.0788 ± 0.23 kcal/mol and the “folding stability dG unfold” value [2] is reported as under -1 kcal/mol.
For “SAGGSAGGSAPLVLVAPGDAPVTVYPDPETGTYVAVFPDGSVLVAPVVGDVVPVVLLPPGLASAGGSAGGSA [r18_405_TrMRF]”, the “folding stability dG unfold” value [1] was 0.677 ± 0.19 kcal/mol and the “folding stability dG unfold” value [2] was -0.31 ± 0.23 kcal/mol.
In the case of “SAGGSAGGSAPPIPIQIKIERPDPDGEKRERKIPVWIPPNNIDEIKDEAEEEGWRVKEVTISAGGSAGGSAG [r3_453_TrROS]”, the “folding stability dG unfold” value [1] is reported as 0.29 ± 0.05 kcal/mol and the “folding stability dG unfold” value [2] is reported as -0.477 ± 0.18 kcal/mol.
For “SAGGSAGGSARIDFPAIRRLLGSEAPAEDVVEAVEVIAKELAEELNLPDVEVDPRVVAPDELESAGGSAGGS [r12_666_TrMRF]”, the “folding stability dG unfold” value [1] was 0.638 ± 0.068 kcal/mol and the “folding stability dG unfold” value [2] was 0.102 ± 0.22 kcal/mol.
With “SAGGSAGGSASVGLLSVSTTPSGPGTTVTATTALPDGTVRTETRTEAGDGTATATTVTPLAASAGGSAGGSA [r18_79_JUSTAS]” the “folding stability dG unfold” value [1] was 0.271 ± 0.069 kcal/mol and the “folding stability dG unfold” value [2] was -0.295 ± 0.15 kcal/mol.
With “SAGGSAGGSATLTVEVLEEVVEPVPDPSLTPVRLLVRDPANGELREAVVIRDPRRGALRLESAGGSAGGSAG [r3_1_JUSTAS]” the “folding stability dG unfold” value [1] was 0.0495 ± 0.22 kcal/mol and the “folding stability dG unfold” value [2] was -0.488 ± 0.22 kcal/mol.
In the case of “SAGGSAGGSEGFVLRVRRYRRRPDDRVRVPVSEAELEVLPELADAVARALREASPEVEVELRPSAGGSAGGS [r12_342_TrMRF]”, the “folding stability dG unfold” value [1] is reported as 0.0982 ± 0.27 kcal/mol and the “folding stability dG unfold” value [2] is reported as under -1 kcal/mol.
With “SAGGSAGGSELRVLDARPTPDGLVVNLVAPDRLLVTRVDTGADGSQSVSSVVLDAPESTEFDLSAGGSAGGS [r12_981_TrMRF]” the “folding stability dG unfold” value [1] was -0.918 ± 0.36 kcal/mol and the “folding stability dG unfold” value [2] was under -1 kcal/mol.
In the case of “SAGGSAGGSGGMMVTITLPPGVPPSVVRAALEPLGVRVEVRPVPPVVPFRYPEPGELVFSPLGSAGGSAGGS [r12_80_JUSTAS]”, the “folding stability dG unfold” value [1] is reported as 0.373 ± 0.17 kcal/mol and the “folding stability dG unfold” value [2] is reported as under -1 kcal/mol.
In the case of “SAGGSAGGSGGMRVIRTKLEETEFFEETGESRTFEGLVIVEKEIYLPPYPRYPVFRFDEEKEASAGGSAGGS [r12_140_JUSTAS]”, the “folding stability dG unfold” value [1] is reported as -0.379 ± 0.41 kcal/mol and the “folding stability dG unfold” value [2] is reported as -0.526 ± 0.42 kcal/mol.
For “SAGGSAGGSGMVTVKRTVPPGNVEEAVNALTPPNLTITDVKVTELPDSVEVTVTVEDPFPGLVSAGGSAGGS [r12_445_JUSTAS]”, the “folding stability dG unfold” value [1] was 0.587 ± 0.034 kcal/mol and the “folding stability dG unfold” value [2] was 0.0193 ± 0.12 kcal/mol.
With “SAGGSAGGSGNPTPPAEPTVTLSTSDWNEVKERVEKAGLEYETFPGEGKVTLPASDFEKIKEESAGGSAGGS [r12_325_JUSTAS]” the “folding stability dG unfold” value [1] was 0.356 ± 0.049 kcal/mol and the “folding stability dG unfold” value [2] was -0.00313 ± 0.14 kcal/mol.
